Experimental data: article PMC6303327, “A structural and dynamic model for the assembly of Replication Protein A on single-stranded DNA”

Columns and labels:
[1] = target: T1, ScRPA (Rfa1-Rfa2-Rfa3 heterotrimer, wild type) (Saccharomyces cerevisiae, UniProt P22336;P26754;P26755 1-621;1-273;1-122); test: MST; apparent EC50; Hill slope 0.9 ± 0.1; EMSA: 20 mM Tris pH 7.5, 150 mM NaCl, 10 mM MgCl2, 0.01% Tween-20, room temperature, 30 min; MST: MST-binding buffer (composition not in material), room temperature, 20 min; FRET: reaction buffer not given, 10 nM DNA; settings: protein: recombinant; tags: TEV-cleavable His6 on Rfa1; copies: 1;1;1; label: 5' Cy5
[2] = target: T1, ScRPA (Rfa1-Rfa2-Rfa3 heterotrimer, …); test: FRET titration; 10 nM DNA; Hill fit; panel in Supplementary Fig. 14 gives 38.7 ± 0.8; EMSA: 20 mM Tris pH 7.5, 150 mM NaCl, 10 mM MgCl2, 0.01% Tween-20, room temperature, 30 min; MST: MST-binding buffer (composition not in material), room temperature, 20 min; FRET: reaction buffer not given, 10 nM DNA; settings: protein: recombinant; tags: TEV-cleavable His6 on Rfa1; copies: 1;1;1; label: 5' Cy5, Cy3 after nt 29
[3] = target: T1, ScRPA (Rfa1-Rfa2-Rfa3 heterotrimer, …); test: FRET titration; stoichiometric, X0 = 8.7 ± 0.3 nM at 10 nM DNA (1:1); EMSA: 20 mM Tris pH 7.5, 150 mM NaCl, 10 mM MgCl2, 0.01% Tween-20, room temperature, 30 min; MST: MST-binding buffer (composition not in material), room temperature, 20 min; FRET: reaction buffer not given, 10 nM DNA; settings: protein: recombinant; tags: TEV-cleavable His6 on Rfa1; copies: 1;1;1; label: 5' Cy5, 3' Cy3
DBD-A (Rfa1) = DBD-A (Rfa1) (Saccharomyces cerevisiae, UniProt P22336 178-294); test: MST; EC50; EMSA: 20 mM Tris pH 7.5, 150 mM NaCl, 10 mM MgCl2, 0.01% Tween-20, room temperature, 30 min; MST: MST-binding buffer (composition not in material), room temperature, 20 min; FRET: reaction buffer not given, 10 nM DNA; settings: protein: recombinant; tags: GST removed by 3C cleavage; label: Cy5 (5')
DBD-A S178D = DBD-A S178D (Saccharomyces cerevisiae, UniProt P22336 178-294, S178D); test: MST; S178D did not affect dT7 binding; EMSA: 20 mM Tris pH 7.5, 150 mM NaCl, 10 mM MgCl2, 0.01% Tween-20, room temperature, 30 min; MST: MST-binding buffer (composition not in material), room temperature, 20 min; FRET: reaction buffer not given, 10 nM DNA; settings: protein: recombinant; tags: GST removed by 3C cleavage; label: Cy5 (5')
DBD-A S178D, sequence (P22336 178-294 S178D): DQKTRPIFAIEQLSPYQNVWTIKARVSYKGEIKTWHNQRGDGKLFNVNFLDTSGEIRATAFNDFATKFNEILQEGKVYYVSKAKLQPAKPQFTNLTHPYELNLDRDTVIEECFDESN

T1 sequence (P22336 whole entry, chain 1 of 3): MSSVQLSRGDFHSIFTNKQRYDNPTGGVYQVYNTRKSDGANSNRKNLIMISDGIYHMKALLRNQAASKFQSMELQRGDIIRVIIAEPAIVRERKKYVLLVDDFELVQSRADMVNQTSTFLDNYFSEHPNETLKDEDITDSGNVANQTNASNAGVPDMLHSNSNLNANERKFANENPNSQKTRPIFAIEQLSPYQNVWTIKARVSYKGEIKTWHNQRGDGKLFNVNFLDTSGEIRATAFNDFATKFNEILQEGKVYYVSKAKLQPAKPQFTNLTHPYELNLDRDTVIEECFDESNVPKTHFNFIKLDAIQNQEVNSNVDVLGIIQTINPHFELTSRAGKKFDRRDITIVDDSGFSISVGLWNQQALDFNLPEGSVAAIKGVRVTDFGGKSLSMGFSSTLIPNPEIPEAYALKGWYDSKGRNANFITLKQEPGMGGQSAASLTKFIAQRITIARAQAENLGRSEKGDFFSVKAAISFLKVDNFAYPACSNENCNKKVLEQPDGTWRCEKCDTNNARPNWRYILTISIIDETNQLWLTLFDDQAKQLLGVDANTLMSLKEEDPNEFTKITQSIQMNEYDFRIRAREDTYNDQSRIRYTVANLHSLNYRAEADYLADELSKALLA
T1 sequence (P26754 whole entry, chain 2 of 3): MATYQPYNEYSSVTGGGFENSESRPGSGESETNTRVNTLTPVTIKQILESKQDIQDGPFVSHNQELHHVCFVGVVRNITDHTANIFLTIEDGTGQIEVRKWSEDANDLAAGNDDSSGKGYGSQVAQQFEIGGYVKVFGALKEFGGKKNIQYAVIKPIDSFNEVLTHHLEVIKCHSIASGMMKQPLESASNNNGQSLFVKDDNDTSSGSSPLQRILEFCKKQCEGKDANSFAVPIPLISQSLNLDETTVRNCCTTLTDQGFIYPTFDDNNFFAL
T1 sequence (P26755 whole entry, chain 3 of 3): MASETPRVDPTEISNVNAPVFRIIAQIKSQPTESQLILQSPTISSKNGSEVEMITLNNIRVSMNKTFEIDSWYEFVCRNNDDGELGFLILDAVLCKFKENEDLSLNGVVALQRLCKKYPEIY
DBD-A (Rfa1), sequence (P22336 178-294): as the sequence (P22336 178-294 S178D) above, with D1S counted along it

B1: dT100 (Cy5) (ssDNA)
DNA: TTTTTTTTTTTTTTTTTTTTTTTTTTTTTTTTTTTTTTTTTTTTTTTTTTTTTTTTTTTTTTTTTTTTTTTTTTTTTTTTTTTTTTTTTTTTTTTTTTTT
[1]
  apparent K (half saturation): ~20 nM

B2: dT90(1-30) (ssDNA)
DNA: TTTTTTTTTTTTTTTTTTTTTTTTTTTTTTTTTTTTTTTTTTTTTTTTTTTTTTTTTTTTTTTTTTTTTTTTTTTTTTTTTTTTTTTTTT
modifications: internal Cy3 in backbone
[2]
  Kd: 39.3 ± 0.9 nM

## TTTTTTTTTTTTTTTTTTTTTTTTTTTTTT (ssDNA) [dT30 (FRET)]
[3]
  binding result: binds

## TTTTTTT (ssDNA) [dT7 (Cy5)]
DBD-A (Rfa1)
  apparent K (half saturation): 309 ± 18 nM
DBD-A S178D
  binding result: binds
